Entries after “also recorded” stand apart in the source; their conditions may differ.
Key:
mouse CNV model [1] = assay: Posterior ocular collagen deposition (Col1a staining) in laser-induced CNV mouse model; format: in vivo; details: for reduction in collagen deposition (Col1a): IVT D0, 4, 10 and 20
Procedure: (§1) Mice (C57BL/6J, male, 8-10 weeks old) were anesthetized by intraperitoneal injection (135 μL) of a mixture of ketamine hydrochloride (Anesketin; […]) and medetomidine (Domitor; 1 mg/mL) and their pupils dilated with one eye drop (50 μL) Tropicamide (Tropicol™; 5 mg/mL; Thea, Research Papers Clermont-Ferrand, France). Three laser burns were placed in one eye with a green laser at the 9, 12, 3 o'clock positions around the optic disk using a slit lamp delivery system with a hand-held cover slide as a contact lens moisturized with Genteal Gel™ (Novartis, Vilvoorde, Belgium). Each spot was placed with a spot size of 100 μm, laser duration of a 50 milliseconds and a power of 320 mW. […] Finally, 300 μL atipamezole (Antisedan; 5 mg/mL) was injected intraperitoneally to reverse the effect of medetomidine and to reduce sedation time.
(§2) At different time points after lasering, the compounds were administered intravitreally (IVT). The animal was anesthetized with a mixture of ketamine hydrochloride/medetomidine and the eye was treated with a drop of 0.4% oxybuprocaine (Unicaine; Thea Pharma). Intravitreal injections (1 μL) to one eye according to Tables 1 to 3 were performed by using an analytic science syringe (SGE Analytic Science) and glass capillaries with a diameter of 50-70 μm at the end, controlled by the UMP3I Microsyringe Injector and Micro4 Controller (all from World Precision Instruments Inc., Hertfordshire, UK). Finally, atipamezole (Antisedan) was injected intraperitoneally to reverse the effect of medetomidine and to reduce sedation time.
(§3) To analyze the in vivo efficacy of the different compounds, the retina was removed from the dissected posterior segments. These posterior eye cups, which included retinal pigment epithelium (RPE), the choroid and the sclera were stored in phosphate buffered saline (PBS).
To stain for the presence of collagen type 1 (Colla) protein in the laser spots at day 30 after laser, a rabbit anti-collagen antibody (Abcam, 1/270) was used overnight, diluted in Tris-buffered saline (TBS)-Triton 0.5% (v/v) at 4° C. The following day, the tissues were incubated for 2 hours with goat anti rabbit IgG Alexa Fluor 555 (Life Technologies; A-21428), diluted 1/100 in TBS-Triton 0.3% (v/v) at 4° C. The flat mounts of the posterior eye cups were mounted with Prolong Gold with 4′,6-diamidino-2-phenylindole (DAPI, Molecular Probes). Images were obtained using a microscope with a digital camera (Axiocam MrC5; Carl Zeiss, Oberkochen, Germany) at a magnification factor of 20. Morphometric analyses were performed using commercial software (Axiovision; Zeiss, Oberkochen, Germany). The density of collagen deposition was determined by calculating the Colla-positive area as a proportion of the total lesion.
(§4) The mouse CNV model as described in Example 2.1 was used. At different time points after lasering, compounds were administered intraperitoneally (IP), or intravitreally (IVT), as indicated in Table 3.

mouse CNV model [2] = assay: Leukocyte infiltration (CD45 staining) in laser-induced CNV mouse model; format: in vivo
Procedure: as §1, §2, §3
On day 5 after lasering, a rat anti-mouse CD45 and F4/80 antibody ( 1/100; Pharmingen, Erembodegem, Belgium) was used overnight to stain all leukocytes and macrophages, respectively, diluted in Tris-buffered saline (TBS)-Triton 0.3% (v/v). The following day, the tissues were incubated for 2 hours with rabbit anti-rat biotin labeled antibody ( 1/300; DakoCytomation A/S, Copenhagen, Denmark), diluted in TBS-Triton 0.3%. Antibody binding was visualized by fluorescent staining using streptavidin-Alexa-568 ( 1/200; Molecular Probes, Life Technologies, Eugene, Oreg., USA) in TBS-Triton 0.3% for 2 hours. The flatmounts of the posterior eye cups were mounted with Prolong Gold with 4′,6-diamidino-2-phenylindole (DAPI, Molecular Probes). Images were obtained using a microscope with a digital camera
(Axiocam MrC5; Carl Zeiss, Oberkochen, Germany) at a magnification of 20×. Morphometric analyses were performed using commercial software (Axiovision; Zeiss, Oberkochen, Germany). The density of inflammation was determined by calculating the CD45-positive area as a proportion of the total lesion.

[3] = test system: retinal pigment epithelium (RPE) cell; details: Julien et al., Br J Ophthalmol 2014; cited from earlier work
mouse CNV model [4] = assay: Macrophage infiltration (F4/80 staining) in laser-induced CNV mouse model; format: in vivo; details: day 5 after lasering; IVT D0; compared to IgG; dose not stated
Procedure: as §1
At different time points after lasering, the compounds were administered intravitreally (IVT). The animal was anesthetized with a mixture of ketamine hydrochloride/medetomidine and the eye was treated with a drop of 0.4% oxybuprocaine (Unicaine; Thea Pharma). […]

[5] = test system: age-related macular edema (AMD); details: in vivo; cited from earlier work
[6] = test system: retinal ganglion cells (RGCs); details: mouse, in vivo, ip, 25 mg/kg
Procedure: To investigate the safety of anti-PlGF and anti-VEGF-R2 on the retinal ganglion cell layer, naive mice (C75Bl/6 or Swiss mice) were injected with 25 mg/kg of anti-PlGF, anti-VEGF-R2 or control IgG 3 times a week for 6 weeks. Afterwards the mice were sacrificed and immunohistochemistry for the neuronal marker NeuN was performed. The samples were incubated overnight with the primary mouse anti-NeuN (Chemicon MAB377) 1/500. As secondary antibody, rabbit anti-mouse biotin-labeled 1/400 (Dako E0646) was added for 45 minutes. Subsequently, the sections were incubated with Streptavidin-HRP 1/100 in TNB for 30 minutes, followed by amplification with Biotin (kit NEL700) 1/50 in amplification buffer for 8 minutes and again incubated with Streptavidin-HRP 1/100 for 30 minutes (all from Perkin Elmer, Life Sciences). Hereafter, a 3,3-diaminobenzidine (DAB) staining (Fluka-Sigma Aldrich) was performed by adding peroxide to the tissue and a counterstaining was done with Harris hematoxylin (Merck). Viable RGCs were quantified 2 times on the same serial section on a defined length of the retina (250 μm) on either side of the optic nerve.

mouse CNV model [7] = assay: Pericyte coverage (αSMA staining) in mouse CNV model; format: in vivo; details: day 14 after lasering, 25 mg/kg IP 3 times per week
Procedure: as §1, §4
To study pericyte coverage as a marker of vessel maturation, smooth muscle cell actin (SMA) was examined on serial […] paraffin sections. […] The amount of SMA cells present in the lesion was determined by the use of commercial software (Axiovision; Zeiss, Oberkochen, Germany).

[8] = test system: retinal ganglion cells (RGCs); assay: Neuroretinal safety in naive mice: apoptotic cells in ganglion cell layer (TUNEL staining); format: in vivo, mouse; details: 25 mg/kg IP 3 times per week
Procedure: A TUNEL (terminal deoxynucleotidyl transferase-mediated biotinylated UTP nick end labeling) staining was performed to investigate apoptotic signal. Serial sections were deparaffinized, washed and treated with proteinase K ( 1/500; Qiagen, Venlo, the Netherlands) for 15 minutes. Next, sections are incubated with the TUNEL reaction mixture (In Situ Cell Death Detection Kit, POD; Roche, Mannheim, Germany) at 37° C. for 1 hour. Afterwards, the slides were mounted with Prolong Gold containing DAPI (Molecular Probes). Each section was scanned systematically from the temporal to the nasal or a serrata for fluorescent cells indicative of apoptosis. […]

[9] = day 30, equimolar comparison FIG. 2B: 5D11D4 3.1 μg, DC101 3.1 μg, aflibercept 2.4 μg, TAAC 4 μg, vs IgG
[10] = day 5, equimolar comparison FIG. 1B: 5D11D4 3.1 μg, DC101 3.1 μg, aflibercept 2.4 μg, TAAC 4 μg, vs IgG
[11] = day 30, repeated IVT, 3.1 μg (FIG. 2A)
[12] = day 5, equimolar comparison FIG. 1B (5D11D4 3.1 μg, aflibercept 2.4 μg)
[13] = repeat experiment (FIG. 4), day 30, 3.1 μg/eye, compared to PBS

## CC1(C)O[C@@H]2C[C@H]3[C@@H]4CCC5=CC(=O)C=C[C@]5(C)[C@@]4(F)[C@@H](O)C[C@]3(C)[C@]2(C(=O)CO)O1 [TAAC, triamcinolone acetonide, reference compound]
Mouse CNV model [1]; [9]
  effect on collagen deposition, in words: no effect
Mouse CNV model [1]; repeat experiment (FIG. 4), day 30, 40 μg/eye, compared to PBS
  reduction in collagen deposition (Col1a): 49%
Mouse CNV model [2]; [10]
  effect on leukocyte infiltration (CD45), in words: no effect

## aflibercept: multispecific inhibitor capturing VEGF-A, VEGF-B and PlGF; tradename Eylea®, Bayer
Mouse CNV model [1]; [9]
  effect on collagen deposition, in words: no effect; also recorded: did not show any anti-fibrotic effects
Mouse CNV model [1]; day 30, repeated IVT, 2.4 μg (FIG. 2A)
  effect on collagen deposition, in words: no effect on collagen deposition
Mouse CNV model [1]; [11]
  effect on collagen deposition, in words: did not show any anti-fibrotic effects
Mouse CNV model [1]; day 30, repeated IVT, 20 μg (FIG. 2A)
  effect on collagen deposition, in words: no effect on collagen deposition
Mouse CNV model [1]; laser-induced CNV, dose not stated
  effect on posterior ocular fibrosis, summary statement: did not reduce posterior ocular fibrosis
Mouse CNV model [1]; repeat experiment (FIG. 4), day 30, equimolar amount 2.4 μg/eye, compared to PBS
  effect on collagen deposition / fibrosis, in words: did not reduce fibrosis
[3]
  effect on RPE cell death, in words: increase retinal pigment epithelium (RPE) cell death
Mouse CNV model [2]; comparable reduction at comparable dose, dose not stated
  effect on inflammation in laser-induced CNV, summary statement: able to reduce inflammation
Mouse CNV model [2]; [12]
  reduction in leukocyte infiltration (CD45): 50%
Mouse CNV model [2]; day 5 after lasering, IVT D0, 2.4 μg, vs IgG (FIG. 1A)
  effect on leukocyte infiltration (CD45), in words: comparable effects
Mouse CNV model [2]; day 5 after lasering, IVT D0, 20 μg, vs IgG (FIG. 1A)
  effect on leukocyte infiltration (CD45), in words: comparable effects
Mouse CNV model [2]; day 5 after lasering, single IVT D0, 2.4 μg, compared to IgG
  reduction in leukocyte infiltration (CD45): approximately 50%
Mouse CNV model [2]; day 5 after lasering, single IVT D0, 20 μg, compared to IgG
  reduction in leukocyte infiltration (CD45): approximately 50%
Mouse CNV model [4]
  decrease of infiltration of macrophages (F4/80): 52%

## bevacizumab: antibody binding all VEGF-A isoforms
[5]
  patients developing a posterior fibrotic scar: 24.7%

## ranibizumab: antibody fragment binding all VEGF-A isoforms
[5]
  patients developing a posterior fibrotic scar: 24.7%

B1: 5D11D4: murine anti-murine PlGF-neutralizing antibody; heavy chain SEQ ID NO:12, light chain SEQ ID NO:13 (antibody, listed as Mus musculus, V domains shown)
VH: QVQLQQPGAELVRPGASVKLSCKASGYTFTNYWINWVKQRPGQGLEWIGNIYPSDSFTNYNQKFKDKATLTVDKSSSTAYMHLSSPTSDDSAVYYCTRDYRYDAVYALDYWGQGTSVTVSS
VL: QIVLTQSPAIMSASPGEKVTITCSASSSVSFIHWFQQKPGTSPKLWIYGTSNLASGVPARFSGSGSGTSSSLTISRMEAEDAATYYCQQRSRYPYTFGGGTKLEIK
modifications: VH 5D11D4; VL 5D11D4
Mouse CNV model [1]; [9]
  effect on collagen deposition, in words: delays the process of wound healing; also recorded: decreased collagen deposition
Mouse CNV model [1]; day 30, repeated IVT, 1.5 μg (FIG. 2A)
  effect on collagen deposition, in words: decreased collagen deposition
Mouse CNV model [1]; [11]
  effect on collagen deposition, in words: decreased collagen deposition
Mouse CNV model [1]; day 30 after lasering, 1.5 μg, compared to IgG
  reduction in collagen deposition (Col1a): 43%
Mouse CNV model [1]; day 30 after lasering, 3.1 μg, compared to IgG
  reduction in collagen deposition (Col1a): 44%
Mouse CNV model [1]; [13]
  effect on collagen deposition / fibrosis, in words: significantly decreased collagen deposition
  reduction in collagen deposition (Col1a): 44%
Mouse CNV model [2]; [12]
  reduction in leukocyte infiltration (CD45): 50%
Mouse CNV model [2]; [10]
  effect on leukocyte infiltration (CD45), in words: decreased leukocyte infiltration
Mouse CNV model [2]; day 5 after lasering, IVT D0, 1.5 μg, vs IgG (FIG. 1A)
  effect on leukocyte infiltration (CD45), in words: decreased leukocyte infiltration
Mouse CNV model [2]; day 5 after lasering, IVT D0, 3.1 μg, vs IgG (FIG. 1A)
  effect on leukocyte infiltration (CD45), in words: decreased leukocyte infiltration
Mouse CNV model [2]; day 5 after lasering, single IVT D0, 1.5 μg, compared to IgG
  reduction in leukocyte infiltration (CD45): 36%
Mouse CNV model [2]; day 5 after lasering, single IVT D0, 3.1 μg, compared to IgG
  reduction in leukocyte infiltration (CD45): 46%
[6]
  RGCs/retinal area versus other treatment groups, in words: not significantly different
  effect on RGC density, in words: did not induce any alteration
  ganglion cell density (RGC/retinal area): 4600 RGC/retinal area
Mouse CNV model [7]
  αSMA-positive area versus control IgG, in words: increased the αSMA (smooth muscle cell actin) positive area
Mouse CNV model [7]; vs control IgG
  increase in pericyte-covered vessels: 35%
[8]; C57Bl/6 mice, after 6 weeks
  apoptotic cells per retinal area versus control IgG, in words: comparable
[8]; C57Bl/6 mice, after 6 weeks, control IgG 16±2
  apoptotic cells per retinal area in the ganglion cell layer (TUNEL): 20±4 apoptotic cells per retinal area
[8]; Swiss mice (Rd gene)
  effect on apoptotic cells / apoptotic rate, in words: did not induce any alteration
Mouse CNV model [4]
  decrease of infiltration of macrophages (F4/80): 48%

From patent publication US20190031762A1, “POSTERIOR OCULAR FIBROSIS INHIBITION BY ANTAGONIZING PLACENTAL GROWTH FACTOR” (THROMBOGENICS NV, priority 2016, published 2019)
